Laboratory results reported in paper doi:10.1101/2023.01.21.525003 (bioRxiv, 2023).

Molecular target: Gluc-LHCGRv4 (Gaussia luciferase fused to the N-terminus of the luteinizing hormone/chorionic gonadotropin … (human, UniProt P22888 27-699))
Test: FRET or BRET

Gluc-LHCGRv4 (Gaussia luciferase fused to the N-terminus of the luteinizing hormone/chorionic gonadotropin …, sequence (P22888 27-699): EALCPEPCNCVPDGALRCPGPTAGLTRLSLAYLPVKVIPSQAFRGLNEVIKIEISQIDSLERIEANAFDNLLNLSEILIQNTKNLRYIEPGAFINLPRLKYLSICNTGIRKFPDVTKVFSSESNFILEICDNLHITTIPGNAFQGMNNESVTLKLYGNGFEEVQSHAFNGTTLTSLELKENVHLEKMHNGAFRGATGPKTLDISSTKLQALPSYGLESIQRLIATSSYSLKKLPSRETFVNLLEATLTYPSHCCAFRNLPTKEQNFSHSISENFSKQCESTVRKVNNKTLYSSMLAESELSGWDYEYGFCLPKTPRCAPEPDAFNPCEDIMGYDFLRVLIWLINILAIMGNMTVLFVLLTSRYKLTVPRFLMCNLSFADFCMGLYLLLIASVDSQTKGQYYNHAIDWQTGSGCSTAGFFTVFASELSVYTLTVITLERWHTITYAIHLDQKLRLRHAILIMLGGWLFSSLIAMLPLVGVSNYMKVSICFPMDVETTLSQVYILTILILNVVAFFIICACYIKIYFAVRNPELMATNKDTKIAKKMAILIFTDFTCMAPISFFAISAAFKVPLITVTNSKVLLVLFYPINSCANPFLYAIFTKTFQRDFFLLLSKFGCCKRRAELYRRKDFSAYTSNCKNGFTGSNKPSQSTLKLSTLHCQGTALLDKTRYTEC

B1: LHB^WT-eGFP/CGA (luteinizing hormone: LH beta subunit fused to eGFP, co-expressed with the common glycoprotein alpha subunit) (complex)
chain 1: SREPLRPWCHPINAILAVEKEGCPVCITVNTTICAGYCPTMMRVLQAVLPPLPQVVCTYRDVRFESIRLPGCPRGVDPVVSFPVALSCRCGPCRRSTSDCGGPKDHPLTCDHPQLSGLLFL
chain 2: not shown
- BRET ratio, fold over stimulation with unlabeled hormone: 4 fold
